B1: AAD-COUP-TFII-LBD-(144–414) [not stated] / LexA-COUP-TFII-LBD-(144–414) [not stated] (parent)
chain 1: MRREAVQRGRMPPTQPTHGQFALTNGDPLNCHSYLSGYISLLLRAEPYPTSRFGSQCMQPNNIMGIENICELAARMLFSAVEWARNIPFFPDLQITDQVALLRLTWSELFVLNAAQCSMPLHVAPLLAAAGLHASPMSADRVVAFMDHIRIFQEQVEKLKALHVDSAEYSCLKAIVLFTSDACGLSDVAHVESLQEKSQCALEEYVRSQYPNQPTRFGKLLLRLPSLRTVSSSVIEQLFFVRLVGKTPIETLIRDMLLSGSSFNWPYMAIQ
chain 2: B1 chain 1

In the test the parent is B1. As to the kind of experiment: yeast two-hybrid. To be noted: with LexA-COUP-TFII-LBD-(144–414);; read off a plot.
Consider chain 1 MRREAVQRGRMPPTQPTHGQFALTNGDPLNCHSYLSGYISLLLRAEPYPTSRFGSQCMQPNNIMGIENICELAARMLFSAVEWARNIPFFPDLQATDQVALLRLTWSELFVLNAAQCSMPLHVAPLLAAAGLHASPMSADRVVAFMDHIRIFQEQVEKLKALHVDSAEYSCLKAIVLFTSDACGLSDVAHVESLQEKSQCALEEYVRSQYPNQPTRFGKLLLRLPSLRTVSSSVIEQLFFVRLVGKTPIETLIRDMLLSGSSFNWPYMAIQ [chain 1 I95A], for which the response turned out to be 500 nmol/mg/min.

As for chain 1 MRREAVQRGRMPPTQPTHGQFALTNGDPLNCHSYLSGYISLLLRAEPYPTSRFGSQCMQPNNIMGIENICELAARMLASAVEWARNIPFFPDLQITDQVALLRLTWSELFVLNAAQCSMPLHVAPLLAAAGLHASPMSADRVVAFMDHIRIFQEQVEKLKALHVDSAEYSCLKAIVLFTSDACGLSDVAHVESLQEKSQCALEEYVRSQYPNQPTRFGKLLLRLPSLRTVSSSVIEQLFFVRLVGKTPIETLIRDMLLSGSSFNWPYMAIQ [chain 1 F78A], the response was 410 nmol/mg/min.

Turning to chain 1 MRREAVQRGRMPPTQPTHGQFALTNGDPLNCHSYLSGYISLLLRAEPYPTSRFGSQCMQPNNIMGIENICELAARMLFSAVEWARNIPFFPDLQITDQVALLALTWSELFVLNAAQCSMPLHVAPLLAAAGLHASPMSADRVVAFMDHIRIFQEQVEKLKALHVDSAEYSCLKAIVLFTSDACGLSDVAHVESLQEKSQCALEEYVRSQYPNQPTRFGKLLLRLPSLRTVSSSVIEQLFFVRLVGKTPIETLIRDMLLSGSSFNWPYMAIQ [chain 1 R103A], the response amounted to 470 nmol/mg/min.

Regarding chain 1 MRREAVQRGRMPPTQPTHGQFALTNGDPLNCHSYLSGYISLLLRAEPYPTSRFGSQCMQPNNIMGIENICELAARMLFSAVEWAANIPFFPDLQITDQVALLRLTWSELFVLNAAQCSMPLHVAPLLAAAGLHASPMSADRVVAFMDHIRIFQEQVEKLKALHVDSAEYSCLKAIVLFTSDACGLSDVAHVESLQEKSQCALEEYVRSQYPNQPTRFGKLLLRLPSLRTVSSSVIEQLFFVRLVGKTPIETLIRDMLLSGSSFNWPYMAIQ [chain 1 R85A], the response was 390 nmol/mg/min.

Regarding chain 1 MRREAVQRGRMPPTQPTHGQFALTNGDPLNCHSYLSGYISLLLRAEPYPTSRFGSQCMQPNNIMGIENICELAARMLFSAVEWARNIPFFPDLQITDQAALLRLTWSELFVLNAAQCSMPLHVAPLLAAAGLHASPMSADRVVAFMDHIRIFQEQVEKLKALHVDSAEYSCLKAIVLFTSDACGLSDVAHVESLQEKSQCALEEYVRSQYPNQPTRFGKLLLRLPSLRTVSSSVIEQLFFVRLVGKTPIETLIRDMLLSGSSFNWPYMAIQ [chain 1 V99A], the response was found to be 460 nmol/mg/min.

The record behind these values is PMC3834829, “A signature motif mediating selective interactions of BCL11A with the NR2E/F subfamily of orphan nuclear receptors” (Nucleic Acids Research, 2013).
